B1: Ab13 (protein)
scFv: QMQLVESGAEVKKTGSSVKVSCKASGDTLTYRFLHWVRQAPGQAPEWMGWITPFNDNTNYAQKFQDRVTITRDRSMSTAYMELSSLRSEDTAVYYCATGGGNNYYGMEVWGQGTPITVSSGLGGLGGGGSGGGGSGGSSGVGSSYELTQPLSLSVSPGQTASITCSGDKLGDKFTSWYQQQPGQSPVLVIYQDAKRPSGIPERFSGSNSGSTATLTISGTQSMDEADYYCQAWDSSSVVFGGGTKLTVL
modifications: amino acid sequence for anti-UTTA scFv (Ab13)
B2: Ab19 (protein)
scFv: QVQLVESGAEVRRPGSSVKVSCKTSGVTFSGYVLSWVRQAPGHGLEWMGRIIPLIDVENYAREFQGRMKITADKSTNTVYMELNNLRSEDTAVYYCAKSVVRGLDYYYYGFDVWGQGTTVTVSSGLGGLGGGGSGGGGSGGSSGVGSSYELTQPPSLSVAPGKTARITCGGNNIGSKSVHWYQQKPGQAPRLVTYYDGNRPSGIPERFSGSNSGNTATLIISRVEAGDEADYYCQVWDSSSDQGVFGTGTKVTVL
modifications: amino acid sequence for anti-UTTA scFv (Ab19)
B3: Ab16 (protein)
scFv: QVQLQQSGPGLVKPSQTLSLTCAISGDSVSSNSAAWNWIRQSPSRGLEWLGRTYYRSKWYNDYAVSVKSRITINPDTSKNQFSLQLNSVTAVDTAVYYCAKSYAGPISYYYYGLDVWGQGTTVTVSSGLGGLGGGGSGGGGSGGSSGVGSQSALTQPASVSGSPGQSVTISCTGTSSDIGRYNLVSWYQQHPGKAPKLMIYGGSKRPSGVSNRFSGSNSDNTASLTISGLRAEDEADYYCSSYASSSTPYVFGTGTKVTVL
modifications: amino acid sequence for anti-UTTA scFv (Ab16)
B4: Ab18 (protein)
scFv: QVQLVESGGGLVQPGKSLRLSCAASGFTFSTYGMTWVRQAPGKGLEWVSGISGGGSSTNYADSVKGRFIISRDNSNNTLYLQMNSLRAEDTAVYYCARWGVMLSFDYWGQGTPVTVSSGLGGLGGGGSGGGGSGGSSGVGSDIQMTQSPSTLPASVGDRVTITCRASYSVSPWLAWYQQKPGKAPKLLIYKASTLESGVPSRFSGSGSGTEFTLTISSLQPDDFATYYCQQFNSYMMYTFGQGTKLEIK
modifications: amino acid sequence for anti-UTTA scFv (Ab18)

The target in the test is protein A56 (Vaccinia virus, UniProt Q01218).
As to B1, the “Western blot band on denatured protein” value is “many weak bands with small sizes were observed or no band was observed” and the “Western blotting, binding affinity in a two-dimensional structure using PAGE” value (“Western blotting, binding affinity” below) is “binding did not occur”. In the case of B2, the “Western blot band on denatured protein” value was “many weak bands with small sizes were observed or no band was observed” and the “Western blotting, binding affinity” value is reported as “a linear single band was identified”. As to B3, the “Western blot band on denatured protein” value was “many weak bands with small sizes were observed or no band was observed” and the “Western blotting, binding affinity” value is given as “linear multiple bands were identified”. On to B4, for which the “Western blotting, binding affinity” value is listed as “linear multiple bands were identified”.

The record behind these values is patent US20240181058A1, “[…] ANTIGEN RECEPTOR TARGETING ONCOLYTIC VIRUS-DERIVED PROTEIN, […], AND USES OF BOTH” (priority 2021, published 2024).
